Publication PMC9450138 (Redox Biology, 2022)

Molecular target: T1, Alexa Fluor 546 labelled PRDX1 (UniProt Q06830 1-199, Alexa Fluor 546 label (site not stated))
T1 sequence (looked up): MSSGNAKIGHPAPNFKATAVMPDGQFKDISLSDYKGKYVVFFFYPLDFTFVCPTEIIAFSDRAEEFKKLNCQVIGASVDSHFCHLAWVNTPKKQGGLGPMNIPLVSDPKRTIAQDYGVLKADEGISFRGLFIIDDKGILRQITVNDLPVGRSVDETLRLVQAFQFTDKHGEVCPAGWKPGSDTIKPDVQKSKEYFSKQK
Experiment: other fluorescence titration

B1: RAD51 labelled with the QSY 35 quencher (natural protein, UniProt Q06609 1-339, looked up)
chain: MAMQMQLEANADTSVEEESFGPQPISRLEQCGINANDVKKLEEAGFHTVEAVAYAPKKELINIKGISEAKADKILAEAAKLVPMGFTTATEFHQRRSEIIQITTGSKELDKLLQGGIETGSITEMFGEFRTGKTQICHTLAVTCQLPIDRGGGEGKAMYIDTEGTFRPERLLAVAERYGLSGSDVLDNVAYARAFNTDHQTQLLYQASAMMVESRYALLIVDSATALYRTDYSGRGELSARQMHLARFLRMLLRLADEFGVAVVITNQVVAQVDGAAMFAADPKKPIGGNIIAHASTTRLYLRKGRGETRICKIYDSPCLPEAEAMFAINADGVGDAKD
modifications: QSY 35 quencher label (site not stated)
apparent KD (first of two): 140 nM | apparent KD (second of two): 610 nM
